T1: Recombinant Syndecan-1 (2780-SD) (human, UniProt P18827 23-254)
T1 sequence (looked up): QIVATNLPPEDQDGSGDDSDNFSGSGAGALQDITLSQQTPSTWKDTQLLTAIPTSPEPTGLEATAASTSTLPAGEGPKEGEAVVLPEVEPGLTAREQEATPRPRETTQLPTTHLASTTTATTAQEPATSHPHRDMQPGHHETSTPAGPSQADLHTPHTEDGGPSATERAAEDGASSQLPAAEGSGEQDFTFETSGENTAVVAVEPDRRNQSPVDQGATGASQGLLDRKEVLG

B1: Biotinylated IL-34 (ligand, human, UniProt Q6ZMJ4 19-242, looked up)
chain: LGNEPLEMWPLTQNEECTVTGFLRDKLQYRSRLQYMKHYFPINYKISVPYEGVFRIANVTRLQRAQVSERELRYLWVLVSLSATESVQDVLLEGHPSWKYLQEVETLLLNVQQGLTDVEVSPKVESVLSLLNAPGPNLKLVRPKALLDNCFRVMELLYCSCCKQSSVLNWQDCEVPSPQSCSPEPSLQYAATQLYPPPPWSPSSPPHSTGSVRPVRAQGEGLLP
modifications: biotin (biotinylated, site not stated)
B2: Recombinant human TREM2 (9256-T2-50) (receptor, UniProt Q9NZC2 19-174, looked up)
chain: HNTTVFQGVAGQSLQVSCPYDSMKHWGRRKAWCRQLGEKGPCQRVVSTHNLWLLSFLRRWNGSTAITDDTLGGTLTITLRNLQPHDAGLYQCQSLHGSEADTLRKVLVEVLADPLDHRDAGDLWFPGESESFEDAHVEHSISRSLLEGEIPFPPTS

Tests used:
Test in all cases: ELISA
[1] = target: Recombinant human CSF-1R-Fc (329-MR-100) (human, UniProt P07333 20-517)
Recombinant human CSF-1R-Fc (329-MR-100), sequence (P07333 20-517): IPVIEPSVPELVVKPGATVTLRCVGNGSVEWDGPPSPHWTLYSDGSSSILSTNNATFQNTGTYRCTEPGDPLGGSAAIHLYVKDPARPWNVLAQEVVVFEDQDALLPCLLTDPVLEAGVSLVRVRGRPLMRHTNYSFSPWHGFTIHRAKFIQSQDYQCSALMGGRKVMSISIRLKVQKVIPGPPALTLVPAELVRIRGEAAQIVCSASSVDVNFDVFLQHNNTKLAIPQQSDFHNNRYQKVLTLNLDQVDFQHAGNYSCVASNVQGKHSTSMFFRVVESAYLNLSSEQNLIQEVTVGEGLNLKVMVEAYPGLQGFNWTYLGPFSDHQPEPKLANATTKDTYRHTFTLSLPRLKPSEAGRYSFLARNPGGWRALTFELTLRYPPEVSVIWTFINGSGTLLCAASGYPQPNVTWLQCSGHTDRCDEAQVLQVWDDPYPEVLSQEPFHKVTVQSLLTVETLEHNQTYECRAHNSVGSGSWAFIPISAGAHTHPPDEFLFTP

[2] = target: T1, Recombinant Syndecan-1 (2780-SD)
Biotinylated IL-34 = target: B1

Binder | binding result [1] | binding result [2] | binding result (Biotinylated IL-34)
B1 | binds | binds | –
B2 | – | – | binds

Source: paper PMC11927444 (Journal for Immunotherapy of Cancer, 2025)
